Source: paper PMC7337490, “Molecular basis of MKLP2-dependent Aurora B transport from chromatin to the anaphase central spindle”

B1: centromeric alpha-satellite consensus 40 bp (dsDNA)
DNA 1: ATTCAACTCACAGAGTTGAACCTTCCTTTTCATAGAGCAG
DNA 2: CTGCTCTATGAAAAGGAAGGTTCAACTCTGTGAGTTGAAT
B2: non-alpha-satellite 40 bp (dsDNA)
DNA 1: ATTCCATGGCACCGTCAAGGCTGAGAACGGGAAGCTTGTC
DNA 2: GACAAGCTTCCCGTTCTCAGCCTTGACGGTGCCATGGAAT

Columns and labels:
Settings in all cases: protein: recombinant;recombinant;recombinant; tags: N-terminal His (tag cleavage stated for complex);;His6-GST, cleaved by HRV 3C; copies: 1;1;1; label: Alexa 488 on forward strand; blunt
[1] = target: survivin;borealin 10-109;INCENP 1-80 (CPI80) (human;human;human, UniProt O15392;Q53HL2;Q9NQS7 1-142;10-109;1-80, ||); experiment: MST; 100 mM NaCl, 20 mM Tris-HCl pH 7.4, 1 mM DTT, 2 h on ice; MST 0.04 uM duplex, 0.1-200 uM protein; EMSA 0.15 pmol plasmid in 20 ul, 0.8% agarose
Chain of survivin;borealin 10-109;INCENP 1-80 (CPI80) (O15392 whole entry, chain 1 of 3): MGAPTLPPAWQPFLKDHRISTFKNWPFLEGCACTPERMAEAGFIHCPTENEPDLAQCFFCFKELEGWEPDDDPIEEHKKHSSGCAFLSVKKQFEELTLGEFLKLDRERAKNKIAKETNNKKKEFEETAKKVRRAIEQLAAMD
Chain of survivin;borealin 10-109;INCENP 1-80 (CPI80) (Q53HL2 10-109, chain 2 of 3): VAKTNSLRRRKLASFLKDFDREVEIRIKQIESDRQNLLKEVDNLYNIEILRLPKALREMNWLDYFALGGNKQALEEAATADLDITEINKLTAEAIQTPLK
Chain of survivin;borealin 10-109;INCENP 1-80 (CPI80) (Q9NQS7 1-80, chain 3 of 3): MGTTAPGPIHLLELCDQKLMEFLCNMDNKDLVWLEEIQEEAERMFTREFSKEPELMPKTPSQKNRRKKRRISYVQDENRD

[2] = target: survivin;borealin 10-109;INCENP 1-80 T59E (CPI80T59E) (human;human;human, UniProt O15392;Q53HL2;Q9NQS7 1-142;10-109;1-80, ||T59E); experiment: MST; Kd not calculable per legend; 100 mM NaCl, 20 mM Tris-HCl pH 7.4, 1 mM DTT, 2 h on ice; MST 0.04 uM duplex, 0.1-200 uM protein; EMSA 0.15 pmol plasmid in 20 ul, 0.8% agarose
Chain of survivin;borealin 10-109;INCENP 1-80 T59E (CPI80T59E) (O15392 whole entry, chain 1 of 3): as the sequence (O15392 whole entry, chain 1 of 3) above
Chain of survivin;borealin 10-109;INCENP 1-80 T59E (CPI80T59E) (Q53HL2 10-109, chain 2 of 3): as the sequence (Q53HL2 10-109, chain 2 of 3) above
Chain of survivin;borealin 10-109;INCENP 1-80 T59E (CPI80T59E) (Q9NQS7 1-80 T59E, chain 3 of 3): as the sequence (Q9NQS7 1-80, chain 3 of 3) above, with T59E counted along it

[3] = target: survivin;borealin 10-109;INCENP 1-80 RRKKRR (CPI80RRKKRR) (human;human;human, UniProt O15392;Q53HL2;Q9NQS7 1-142;10-109;1-80, ||R65A;R66A;K67A;K68A;R69A;R70A); experiment: MST; up to 200 uM; 100 mM NaCl, 20 mM Tris-HCl pH 7.4, 1 mM DTT, 2 h on ice; MST 0.04 uM duplex, 0.1-200 uM protein; EMSA 0.15 pmol plasmid in 20 ul, 0.8% agarose
Chain of survivin;borealin 10-109;INCENP 1-80 RRKKRR (CPI80RRKKRR) (O15392 whole entry, chain 1 of 3): as the sequence (O15392 whole entry, chain 1 of 3) above
Chain of survivin;borealin 10-109;INCENP 1-80 RRKKRR (CPI80RRKKRR) (Q53HL2 10-109, stated change not applied, chain 2 of 3): as the sequence (Q53HL2 10-109, chain 2 of 3) above
Chain of survivin;borealin 10-109;INCENP 1-80 RRKKRR (CPI80RRKKRR) (Q9NQS7 1-80 R65A/R66A/K67A/K68A/R69A/R70A, chain 3 of 3): as the sequence (Q9NQS7 1-80, chain 3 of 3) above, with R65A, R66A, K67A, K68A, R69A, R70A counted along it

[4] = target: survivin;borealin 10-109;INCENP 1-58 (CPI58) (human;human;human, UniProt O15392;Q53HL2;Q9NQS7 1-142;10-109;1-58, ||); experiment: as above
Chain of survivin;borealin 10-109;INCENP 1-58 (CPI58) (O15392 whole entry, chain 1 of 3): as the sequence (O15392 whole entry, chain 1 of 3) above
Chain of survivin;borealin 10-109;INCENP 1-58 (CPI58) (Q53HL2 10-109, chain 2 of 3): as the sequence (Q53HL2 10-109, chain 2 of 3) above
Chain of survivin;borealin 10-109;INCENP 1-58 (CPI58) (Q9NQS7 1-58, chain 3 of 3): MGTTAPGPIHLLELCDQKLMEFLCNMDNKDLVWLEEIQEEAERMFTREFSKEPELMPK

| Binder | Kd [1] | binding signal [2] | binding result [3] | binding result [4] |
| --- | --- | --- | --- | --- |
| B1 | 23.6 ± 1.6 µM | ~2 fold lower affinity than CPI80 | no binding | no binding |
| B2 | 29.7 ± 1.6 µM | ~2 fold lower affinity than CPI80 | no binding | no binding |
